Data reported in article PMC11127761.

What was measured:
Assay in all cases: electrochemical aptasensor (IPA 500 Hz, flow cell)
Details in all cases: 1-1000 pg/mL; NPY signal about 10x higher; 5' thiol C6 (disulfide reduced), 3' amino linker; aCSF pH 7.4 (composition by citation); SWV -0.4 to 0.0 V, 30 Hz; IPA 500 Hz in flow cell; assay temperature not stated
[1] = biological target: T1, Pancreatic polypeptide (PP) (UniProt P01298)
T1 sequence: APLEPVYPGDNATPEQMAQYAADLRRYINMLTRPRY

Peptide YY (PYY) = Peptide YY (PYY) (UniProt P10082)
Peptide YY (PYY), sequence (P10082 29-64): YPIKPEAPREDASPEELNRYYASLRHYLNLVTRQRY

Somatostatin (SOM) = biological target: T2, Somatostatin (SOM) (UniProt P61278)
T2 sequence: AGCKNFFWKTFTSC

Measured: binding signal (fraction of NPY signal)

AGCAGCACAGAGGTCAGATGCAAACCACAGCCTGAGTGGTTAGCGTATGTCATTTACGGACCTATGCGTGCTACCGTGAA [Aptamer 4.31]
0.1: [1] | Peptide YY (PYY) | Somatostatin (SOM)
